Measurements from patent US5766899.

B1: Peptide E35 (peptide)
peptide: EWSPCSVTCGNGIQVRIKPGSAN

Tests used:
[1] = biological target: CS receptor on primary mouse hepatocytes (mouse)
[2] = biological target: CS receptor on primary mouse hepatocytes (mouse); remark: listed apart in the source
[3] = substrate: CS receptor on primary mouse hepatocytes (mouse); remark: listed apart in the source

Molecule | transfection efficiency of primary hepatocytes (X-gal staining) (% transfection efficiency) [1] | other results
BSA/poly(L-lysine) conjugate (from UniProt P02769) | < 10 | –
DHFR-CSF1-His6/poly(L-lysine) conjugate (from UniProt P00375) | – | Blue cells (%) after transfection of primary hepatocytes with conjugate/pCMV-β-gal DNA complex (X-gal staining) [2]: < 1 % blue cells
poly(L-lysine) | < 5 | –
B1 | – | inhibition of β-galactosidase activity (ONPG) in CS27IVC-His6 conjugate-mediated gene transfer into primary hepatocytes (% inhibited at 0.125 µM) [3]: 50
